Our source for the Kd values is article PMC2440032 (2008).

In this assay the target is porcine stomach mucin (porcine). The assay can be described thus: SPR.

The term Kd denotes the constant that tells how readily two partners part at equilibrium. High values mean weaker binding, low ones tighter binding. On to YASPKCFRYPNGVLACT [odorranalectin], for which binding was put at a Kd of 1910 nM.
